This is an account of results in patent US20060257938A1, “Method of screening for drugs that block ligand binding to a lipid binding protein” (priority 2005, published 2006).

Holding throughout (format): binding
Test [1] can be described thus: Probe fluorescence ratio response to oleic acid relative to ADIFAB2. The settings on record: response relative to ADIFAB2. An outline of the steps:
(§1)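 Each fatty acid's response was expressed relative to ADIFAB2, the rI-FABP-L72A probe, as ΔR/ΔRreference. ΔR is the change in the background-corrected two-wavelength intensity ratio R=Fλ1/Fλ2 from its analyte-free baseline R0. Emission was read near about 420-480 nm for unbound and about 495-580 nm for FFA-bound probe.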

Test [2] is described as follows: Probe fluorescence ratio response to arachidonic acid relative to ADIFAB2. To be noted: Arachidonic acid; response relative to ADIFAB2. Summed up: as §1
A short description of test [3]: Probe fluorescence ratio response to linolenic acid relative to ADIFAB2. To be noted: response relative to ADIFAB2. Summed up:
as §1

A short description of test [4]: Probe fluorescence ratio response to linoleic acid relative to ADIFAB2. To be noted: response relative to ADIFAB2. Summed up:
as §1

A short description of test [5]: Probe fluorescence ratio response to palmitic acid relative to ADIFAB2. The settings on record: response relative to ADIFAB2. Summed up: as §1

B1: 49Y1, 72A (protein, listed as Rattus norvegicus)
chain: AFDGTWKVDRNENYEKFMEKMGINVVKRKLGAHDNLKLTITQEGNKFTYKESSNFRNIDVVFELGVDFAYSAADGTELTGTWTMEGNKLVGKFKRVDNGKELIAVREISGNELIQTYTYEGVEAKRIFKKE
modifications: PEPTIDE (1)...(131) wild-type rat intestinal fatty acid binding protein
Consider B1, for which the “DR/DR OA” value in test [1] is 1.34. Further, the “DR/DR AA” value in test [2] is 1.39. Also, the “DR/DR LNA” value in test [3] stood at 1.44. Moreover, the “DR/DR LA” value in test [4] turned out to be 1.51. Besides, the “DR/DR PA” value in test [5] worked out at 0.70.

B2: 51A1, 72A (protein, listed as Rattus norvegicus)
chain: AFDGTWKVDRNENYEKFMEKMGINVVKRKLGAHDNLKLTITQEGNKFTVKASSNFRNIDVVFELGVDFAYSAADGTELTGTWTMEGNKLVGKFKRVDNGKELIAVREISGNELIQTYTYEGVEAKRIFKKE
modifications: PEPTIDE (1)...(131) wild-type rat intestinal fatty acid binding protein
With B2, the “DR/DR OA” value in test [1] came to 1.28. In addition, the “DR/DR AA” value in test [2] worked out at 1.38. In addition, in test [3], the “DR/DR LNA” value is on record as 1.49. Moreover, the “DR/DR LA” value in test [4] is given as 1.48. Besides, in test [5], the “DR/DR PA” value stood at 0.70.

B3: 51C3, 72A (protein, listed as Rattus norvegicus)
chain: AFDGTWKVDRNENYEKFMEKMGINVVKRKLGAHDNLKLTITQEGNKFTVKCSSNFRNIDVVFELGVDFAYSAADGTELTGTWTMEGNKLVGKFKRVDNGKELIAVREISGNELIQTYTYEGVEAKRIFKKE
modifications: PEPTIDE (1)...(131) wild-type rat intestinal fatty acid binding protein
For B3, the “DR/DR OA” value in test [1] came out at 1.35. Also, the “DR/DR AA” value in test [2] came out at 1.44. Moreover, in test [3], the “DR/DR LNA” value worked out at 1.47. The “DR/DR LA” value in test [4] worked out at 1.55. For the same molecule, the “DR/DR PA” value in test [5] is given as 0.69.

B4: 51P3, 72A (protein, listed as Rattus norvegicus)
chain: AFDGTWKVDRNENYEKFMEKMGINVVKRKLGAHDNLKLTITQEGNKFTVKPSSNFRNIDVVFELGVDFAYSAADGTELTGTWTMEGNKLVGKFKRVDNGKELIAVREISGNELIQTYTYEGVEAKRIFKKE
modifications: PEPTIDE (1)...(131) wild-type rat intestinal fatty acid binding protein
Turning to B4, in test [1], the “DR/DR OA” value came to 1.21. Further, the “DR/DR AA” value in test [2] stood at 1.42. Further, in test [3], the “DR/DR LNA” value turned out to be 1.48. Besides, the “DR/DR LA” value in test [4] is reported as 1.42. The “DR/DR PA” value in test [5] was determined as 0.72.

B5: 51I1, 72A (protein, listed as Rattus norvegicus)
chain: AFDGTWKVDRNENYEKFMEKMGINVVKRKLGAHDNLKLTITQEGNKFTVKISSNFRNIDVVFELGVDFAYSAADGTELTGTWTMEGNKLVGKFKRVDNGKELIAVREISGNELIQTYTYEGVEAKRIFKKE
modifications: PEPTIDE (1)...(131) wild-type rat intestinal fatty acid binding protein
Take B5: in test [1], the “DR/DR OA” value was determined as 1.41. Moreover, the “DR/DR AA” value in test [2] was found to be 1.50. Further, in test [3], the “DR/DR LNA” value is listed as 1.62. The “DR/DR LA” value in test [4] came out at 1.55. The “DR/DR PA” value in test [5] stood at 0.72.

B6: 51L3, 72A (protein, listed as Rattus norvegicus)
chain: AFDGTWKVDRNENYEKFMEKMGINVVKRKLGAHDNLKLTITQEGNKFTVKLSSNFRNIDVVFELGVDFAYSAADGTELTGTWTMEGNKLVGKFKRVDNGKELIAVREISGNELIQTYTYEGVEAKRIFKKE
modifications: PEPTIDE (1)...(131) wild-type rat intestinal fatty acid binding protein
As to B6, the “DR/DR OA” value in test [1] worked out at 1.45. The “DR/DR AA” value in test [2] is 1.64. In addition, in test [3], the “DR/DR LNA” value worked out at 1.66. Besides, the “DR/DR LA” value in test [4] worked out at 1.65. The “DR/DR PA” value in test [5] is reported as 0.76.

B7: 51Q1, 72A (protein, listed as Rattus norvegicus)
chain: AFDGTWKVDRNENYEKFMEKMGINVVKRKLGAHDNLKLTITQEGNKFTVKQSSNFRNIDVVFELGVDFAYSAADGTELTGTWTMEGNKLVGKFKRVDNGKELIAVREISGNELIQTYTYEGVEAKRIFKKE
modifications: PEPTIDE (1)...(131) wild-type rat intestinal fatty acid binding protein
B7: the “DR/DR OA” value in test [1] amounted to 1.43. Also, the “DR/DR AA” value in test [2] is 1.56. In test [3], the “DR/DR LNA” value amounted to 1.65. Besides, the “DR/DR LA” value in test [4] was 1.63. Besides, the “DR/DR PA” value in test [5] was 0.73.

B8: 51R1, 72A (protein, listed as Rattus norvegicus)
chain: AFDGTWKVDRNENYEKFMEKMGINVVKRKLGAHDNLKLTITQEGNKFTVKRSSNFRNIDVVFELGVDFAYSAADGTELTGTWTMEGNKLVGKFKRVDNGKELIAVREISGNELIQTYTYEGVEAKRIFKKE
modifications: PEPTIDE (1)...(131) wild-type rat intestinal fatty acid binding protein
In the case of B8, the “DR/DR OA” value in test [1] is listed as 1.35. The “DR/DR AA” value in test [2] is on record as 1.50. For the same molecule, the “DR/DR LNA” value in test [3] is reported as 1.56. Further, the “DR/DR LA” value in test [4] turned out to be 1.56. The “DR/DR PA” value in test [5] was 0.73.

B9: 51D1, 72A (protein, listed as Rattus norvegicus)
chain: AFDGTWKVDRNENYEKFMEKMGINVVKRKLGAHDNLKLTITQEGNKFTVKDSSNFRNIDVVFELGVDFAYSAADGTELTGTWTMEGNKLVGKFKRVDNGKELIAVREISGNELIQTYTYEGVEAKRIFKKE
modifications: PEPTIDE (1)...(131) wild-type rat intestinal fatty acid binding protein
For B9, in test [1], the “DR/DR OA” value is on record as 1.28. In test [2], the “DR/DR AA” value was 1.34. Also, the “DR/DR LNA” value in test [3] is reported as 1.39. For the same molecule, the “DR/DR LA” value in test [4] was found to be 1.38. For the same molecule, in test [5], the “DR/DR PA” value was 0.68.

B10: 51H1, 72A (protein, listed as Rattus norvegicus)
chain: AFDGTWKVDRNENYEKFMEKMGINVVKRKLGAHDNLKLTITQEGNKFTVKHSSNFRNIDVVFELGVDFAYSAADGTELTGTWTMEGNKLVGKFKRVDNGKELIAVREISGNELIQTYTYEGVEAKRIFKKE
modifications: PEPTIDE (1)...(131) wild-type rat intestinal fatty acid binding protein
In the case of B10, the “DR/DR OA” value in test [1] was determined as 0.58. Besides, in test [2], the “DR/DR AA” value was determined as 1.52. For the same molecule, the “DR/DR LNA” value in test [3] is given as 1.58. In test [4], the “DR/DR LA” value is recorded as 1.64. Moreover, in test [5], the “DR/DR PA” value was found to be 0.81.

B11: 51F1, 72A (protein, listed as Rattus norvegicus)
chain: AFDGTWKVDRNENYEKFMEKMGINVVKRKLGAHDNLKLTITQEGNKFTVKFSSNFRNIDVVFELGVDFAYSAADGTELTGTWTMEGNKLVGKFKRVDNGKELIAVREISGNELIQTYTYEGVEAKRIFKKE
modifications: PEPTIDE (1)...(131) wild-type rat intestinal fatty acid binding protein
B11: in test [1], the “DR/DR OA” value turned out to be 1.47. For the same molecule, the “DR/DR AA” value in test [2] stood at 1.64. For the same molecule, in test [3], the “DR/DR LNA” value is on record as 1.60. Also, in test [4], the “DR/DR LA” value stood at 1.70. Moreover, in test [5], the “DR/DR PA” value is on record as 0.76.

B12: 51S1, 72A (protein, listed as Rattus norvegicus)
chain: AFDGTWKVDRNENYEKFMEKMGINVVKRKLGAHDNLKLTITQEGNKFTVKSSSNFRNIDVVFELGVDFAYSAADGTELTGTWTMEGNKLVGKFKRVDNGKELIAVREISGNELIQTYTYEGVEAKRIFKKE
modifications: PEPTIDE (1)...(131) wild-type rat intestinal fatty acid binding protein
As to B12, the “DR/DR OA” value in test [1] was 1.61. Besides, the “DR/DR AA” value in test [2] came out at 1.64. Besides, the “DR/DR LNA” value in test [3] was 1.66. For the same molecule, the “DR/DR LA” value in test [4] is given as 1.78. The “DR/DR PA” value in test [5] was 0.80.

B13: 51K1, 72A (protein, listed as Rattus norvegicus)
chain: AFDGTWKVDRNENYEKFMEKMGINVVKRKLGAHDNLKLTITQEGNKFTVKKSSNFRNIDVVFELGVDFAYSAADGTELTGTWTMEGNKLVGKFKRVDNGKELIAVREISGNELIQTYTYEGVEAKRIFKKE
modifications: PEPTIDE (1)...(131) wild-type rat intestinal fatty acid binding protein
Regarding B13, in test [1], the “DR/DR OA” value is 1.01. For the same molecule, the “DR/DR AA” value in test [2] stood at 1.00. Besides, the “DR/DR LNA” value in test [3] came out at 1.02. Further, the “DR/DR LA” value in test [4] is on record as −0.01. In addition, the “DR/DR PA” value in test [5] is 0.56.

B14: 51N1, 72A (protein, listed as Rattus norvegicus)
chain: AFDGTWKVDRNENYEKFMEKMGINVVKRKLGAHDNLKLTITQEGNKFTVKNSSNFRNIDVVFELGVDFAYSAADGTELTGTWTMEGNKLVGKFKRVDNGKELIAVREISGNELIQTYTYEGVEAKRIFKKE
modifications: PEPTIDE (1)...(131) wild-type rat intestinal fatty acid binding protein
For the molecule B14, in test [1], the “DR/DR OA” value is listed as 1.26. The “DR/DR AA” value in test [2] is on record as 1.38. In test [3], the “DR/DR LNA” value stood at 1.39. The “DR/DR LA” value in test [4] came to 1.46. The “DR/DR PA” value in test [5] is 0.73.

B15: 51G1, 72A (protein, listed as Rattus norvegicus)
chain: AFDGTWKVDRNENYEKFMEKMGINVVKRKLGAHDNLKLTITQEGNKFTVKGSSNFRNIDVVFELGVDFAYSAADGTELTGTWTMEGNKLVGKFKRVDNGKELIAVREISGNELIQTYTYEGVEAKRIFKKE
modifications: PEPTIDE (1)...(131) wild-type rat intestinal fatty acid binding protein
Take B15: the “DR/DR OA” value in test [1] is 1.57. For the same molecule, in test [2], the “DR/DR AA” value is listed as 1.64. In test [3], the “DR/DR LNA” value is reported as 1.76. Further, the “DR/DR LA” value in test [4] was found to be 1.71. Besides, in test [5], the “DR/DR PA” value is reported as 0.78.
